Reference: patent publication WO2021028359A1 (dated 2021)

Molecular target: HLA-A2 on HLA-A2 positive peripheral blood mononuclear cells (human)
Assay: cell-based or functional assay

CD69 cell surface expression on Tregs transduced with TX135 (PGK promoter), 24 h co-incubation, flow cytometry: 3.7 fold
CD69 cell surface expression on Tregs transduced with pTX137 (EF1a promoter), 24 h co-incubation, flow cytometry: < 2 fold
CD69 cell surface expression on Tregs transduced with pTX138 (EF1a promoter + WpreMut6), 24 h co-incubation, flow cytometry: < 2 fold
B1: HLA-A2 CAR (anti-HLA-A2 chimeric antigen receptor: CD8 leader, scFv directed against HLA-A2, CD8 alpha linker and transmembrane domain, CD28 activation domain, … (receptor)
chain: SQVQLQQSGPELVKPGASVKMSCKASGYTFTSYHIQWVKQRPGQGLEWIGWIYPGDGSTQYNEKFKGKTTLTADKSSSTAYMLLSSLTSEDSAIYFCAREGTYYAMDYWGQGTSVTVSSGGGGSGGGGSGGGGSDVLMTQTPLSLPVSLGDQVSISCRSSQSIVHSNGNTYLEWYLQKPGQSPKLLIYKVSNRFSGVPDRFSGSGSGTDFTLKISRVEAEDLGVYYCFQGSHVPRTFGGGTKLEIKRTTTPAPRPPTPAPTIASQPLSLRPEACRPAAGGAVHTRGLDFACDIYIWAPLAGTCGVLLLSLVITLYCRSKRSRLLHSDYMNMTPRRPGPTRKHYQPYAPPRDFAAYRSRVKFSRSADAPAYQQGQNQLYNELNLGRREEYDVLDKRRGRDPEMGGKPRRKNPQEGLYNELQKDKMAEAYSEIGMKGERRRGKGHDGLYQGLSTATKDTYDALHMQALPPR
